A word on the Kd: it is the equilibrium constant for the complex coming apart. For orientation: koff means the rate constant with which the complex falls apart. High values mean fast dissociation, low ones slow dissociation. By kon is commonly meant a measure of how fast the partners come together. High values mean fast association, low ones slow association.

One assay deals with T1, human TNF-α (human, UniProt P01375 77-233).
T1 construct: also called Hu TNF; soluble hu TNF
Description: SPR, bispecific captured on anti-human Fc chip, TNF injected, 1:1 model.

Assay [1] deals with T2, human TL1A (human, UniProt O95150 72-251, limits assumed).
T2 construct: The assays name only 'human TL1A protein'; also called huTL1A; Hu TL1A
T2 sequence (looked up): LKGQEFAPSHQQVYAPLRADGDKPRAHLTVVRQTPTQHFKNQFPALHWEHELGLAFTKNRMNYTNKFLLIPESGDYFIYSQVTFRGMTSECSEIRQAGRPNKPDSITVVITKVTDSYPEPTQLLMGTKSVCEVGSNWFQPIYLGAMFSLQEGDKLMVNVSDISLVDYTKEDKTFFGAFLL
Briefly: SPR, bispecific captured on anti-human Fc chip, TL1A injected, 1:1 model. For orientation: In SPR one partner is held on a chip, and binding of the other changes the refractive index at the surface.
Description: (§1) On rate, off rate and equilibrium dissociation constant were calculated using 1:1 binding model on BIAevaluation software.

Assay [2] has as its target T2, human TL1A. Description: cell-based or functional assay.
Assay [3] deals with T2, human TL1A. Description: SPR, Fab captured on anti-huFab chip, TL1A injected, 1:1 model.
Description: as §1
Assay [4] deals with T3, cynomolgus TL1A (cynomolgus monkey, UniProt G7PRK8 72-251).
T3 sequence: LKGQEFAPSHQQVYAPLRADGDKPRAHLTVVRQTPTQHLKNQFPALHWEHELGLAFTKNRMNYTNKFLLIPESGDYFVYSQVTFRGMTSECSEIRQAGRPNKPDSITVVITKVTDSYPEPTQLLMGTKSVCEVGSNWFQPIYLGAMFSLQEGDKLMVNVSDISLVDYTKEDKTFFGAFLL
Description: cell-based or functional assay.

Assay [5] addresses T2, human TL1A. Description: SPR, mAb captured on anti-human Fc chip, TL1A injected, 1:1 model.
Description: as §1
The target in assay [6] is T3, cynomolgus TL1A. Described as above.
Description: as §1
Assay [7] concerns the target T3, cynomolgus TL1A. Description: SPR, Fab captured on anti-huFab chip, TL1A injected, 1:1 model.
Description: as §1
The target of assay [8] is T3, cynomolgus TL1A. Description: SPR, Fab captured on anti-huFab chip, TL1A injected.
Description: as §1

A value given as a limit tells only on which side of the number the result lay.

T1 sequence (P01375 77-233 limits assumed): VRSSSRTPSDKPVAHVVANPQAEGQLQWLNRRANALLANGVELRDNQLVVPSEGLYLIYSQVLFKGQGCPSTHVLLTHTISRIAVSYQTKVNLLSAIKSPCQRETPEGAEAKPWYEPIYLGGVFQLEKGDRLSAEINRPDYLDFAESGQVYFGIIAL
Description for human TNF-α: Goat anti-human Fc was first immobilized on SCM5 sensor chip using amine coupling. […] On rate, off rate and equilibrium dissociation constant were calculated using 1:1 binding model on BIAevaluation software.

B1: hetero Ig certolizumab var/2G11 var, iPS 349461 (bispecific antibody, human IgG1, kappa, N297G)
light 1: not shown
heavy 1: not shown
light 2: DIQMTQSPSSLSASVGDRVTITCRASQSINNYLNWYQKKPGKAPKLLIYATSSLQSGVPSRFSGSGSGTDFSLTISSLQPEDFATYFCQQSYSTPRTFGQGTKVEIKRTVAAPSVFIFPPSDEQLKSGTASVVCLLNNFYPREAKVQWKVDNALQSGNSQESVTEQDSKDSTYSLKSTLTLSKADYEKHKVYACEVTHQGLSSPVTKSFNRGEC
heavy 2: QVQLQESGPGLVKPSETLSLTCTVSGGSISSYFWSWIREPPGKGLEWIGYIYYSGSTNYNPSLKSRVTMSIDTSKNQFSLKLSSVTAADTAVYYCAREIGSYYGFDYWGQGTLVTVSSASTKGPSVFPLAPSSKSTSGGTAALGCLVKDYFPEPVTVSWNSGALTSGVHTFPAVLQSSGLYSLESVVTVPSSSLGTQTYICNVNHKPSNTKVDKKVEPKSCDKTHTCPPCPAPELLGGPSVFLFPPKPKDTLMISRTPEVTCVVVDVSHEDPEVKFNWYVDGVEVHNAKTKPCEEQYGSTYRCVSVLTVLHQDWLNGKEYKCKVSNKALPAPIEKTISKAKGQPREPQVYTLPPSRKEMTKNQVSLTCLVKGFYPSDIAVEWESNGQPENNYKTTPPVLKSDGSFFLYSKLTVDKSRWQQGNVFSCSVMHEALHNHYTQKSLSLSPGK
notes: Heterotetramer with one arm against TNF-α and one against TL1A; also called PL-42787
In the assay with human TNF-α, B1 showed a Kd of 0.019 nM, a koff of 6.4e-05 s⁻¹ and a kon of 3.4e+06 M⁻¹ s⁻¹. In the assay with human TL1A [1], this molecule returned a Kd of 0.25 nM, a koff of 0.00013 s⁻¹ and a kon of 540000 M⁻¹ s⁻¹.

B2: hetero Ig certolizumab var/23B3 VH4, iPS 349463 (bispecific antibody, human IgG1, kappa, N297G)
light 1: not shown
heavy 1: not shown
light 2: not shown
heavy 2: QVQLQESGPGLVKPSETLSLTCTISGDSVSTNSVAWNWIREPPGKGLEWIGRTYYRSKWYNDYAVSLKSRVTISPDTSKNQFSLKLSSVTAADTAVYYCAREDGDSYYRYGMDVWGQGTTVTVSSASTKGPSVFPLAPSSKSTSGGTAALGCLVKDYFPEPVTVSWNSGALTSGVHTFPAVLQSSGLYSLESVVTVPSSSLGTQTYICNVNHKPSNTKVDKKVEPKSCDKTHTCPPCPAPELLGGPSVFLFPPKPKDTLMISRTPEVTCVVVDVSHEDPEVKFNWYVDGVEVHNAKTKPCEEQYGSTYRCVSVLTVLHQDWLNGKEYKCKVSNKALPAPIEKTISKAKGQPREPQVYTLPPSRKEMTKNQVSLTCLVKGFYPSDIAVEWESNGQPENNYKTTPPVLKSDGSFFLYSKLTVDKSRWQQGNVFSCSVMHEALHNHYTQKSLSLSPGK
notes: Heterotetramer with one arm against TNF-α and one against TL1A; also called PL-42788
Consider B2, for which, in the assay with human TNF-α, the Kd was 0.016 nM, the koff was determined as 5.5e-05 s⁻¹ and the kon was 3.4e+06 M⁻¹ s⁻¹. Besides, in the assay with human TL1A [1], the affinity, expressed as Kd, was 0.64 nM; the koff worked out at 0.0004 s⁻¹; the kon came out at 630000 M⁻¹ s⁻¹.

B3: anti-TL1A Fab 9C8 (Fab, V domains shown)
VH: QVQLQESGPGLVKPSETLSLTCTVSGGSISSYFWSWIRQPPGKGLEWIGYIYYSGNTKYNPSLKSRVTISIDTSKNQFSLKLSSVTAADTAVYYCARETGSYYGFDYWGQGTLVTVSS
VL: DIQMTQSPSSLSASVGDRVTITCRASQSINNYLNWYQQRPGKAPKLLIYAASSLQSGVPSRFSGSGSGTDFTLTISSLQPGDFATYYCQQSYSTPRTFGQGTKLEIK
notes: Fab fragment; the Fab's constant parts are not; also called 9C8 Fab; PL-39197
B3: in the assay with human TL1A [2], the “NF-kB IC50 nM, huTL1A (0.2 nM)” value turned out to be 2.43 nM. In addition, in the assay with human TL1A [3], the Kd was less than 0.1 nM.

B4: anti-TL1A Fab 2G11 (Fab, V domains shown)
VH: QVQLQESGPGLVKPSETLSLTCTVSGGSISSYFWSWIRQPPGKGLEWIGYIYYSGSTNYNPSLKSRVTMSIDTSKNQFSLKLSSVTAADTAVYYCAREIGSYYGFDYWGQGALVTVSS
VL: DIQMTQSPSSLSASVGDRVTITCRASQSINNYLNWYQQKPGIAPKLLIYATSSLQSGVPSRFSGSGSGTDFSLTISSLQPEDFATYFCQQSYSTPRTFGQGTKVEIK
notes: Fab fragment; the Fab's constant parts are not; also called 2G11 Fab; PL-38025
Turning to B4, in the assay with human TL1A [2], the “NF-kB IC50 nM, huTL1A (0.2 nM)” value was found to be 0.551 nM. This molecule also came in with a Kd in the assay with human TL1A [3] of less than 0.3 nM.

B5: anti-TL1A mAb 23B3 (antibody, human IgG1, kappa, N297G, V domains shown)
VH: QVQLQQSGPGLVKPSQTLSLTCVISGDSVSTNSVAWNWIRQSPSRGLEWLGRTYYRSKWYNDYAVSVKSRITINPDTSKNQFSLQLNSVTPEDTAVYYCAREDGDSYYRYGMDVWGQGTTVTVSS
VL: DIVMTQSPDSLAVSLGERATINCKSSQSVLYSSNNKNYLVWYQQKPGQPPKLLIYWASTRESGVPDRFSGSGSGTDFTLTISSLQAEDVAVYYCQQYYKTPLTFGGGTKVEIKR
notes: also called iPS 290043
On to B5, for which, in the assay with human TL1A [2], the “NF-kB IC50 nM, huTL1A (0.2 nM)” value was 0.089 nM. In the assay with cynomolgus TL1A [4], the “NF-kB IC50 nM, cyno TL1A (2 nM)” value is 0.619 nM. Besides, in the assay with human TL1A [5], the Kd was 0.89 nM, the off-rate (koff) was 0.00042 s⁻¹ and the kon was determined as 470000 M⁻¹ s⁻¹. Moreover, in the assay with cynomolgus TL1A [6], the Kd amounted to 1.4 nM, the koff came out at 0.00032 s⁻¹ and the kon turned out to be 230000 M⁻¹ s⁻¹.

B6: anti-TL1A Fab 23B3 (Fab, V domains shown)
VH: QVQLQQSGPGLVKPSQTLSLTCVISGDSVSTNSVAWNWIRQSPSRGLEWLGRTYYRSKWYNDYAVSVKSRITINPDTSKNQFSLQLNSVTPEDTAVYYCAREDGDSYYRYGMDVWGQGTTVTVSS
VL: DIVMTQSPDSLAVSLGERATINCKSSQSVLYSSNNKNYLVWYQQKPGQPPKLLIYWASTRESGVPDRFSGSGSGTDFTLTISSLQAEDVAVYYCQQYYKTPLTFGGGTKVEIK
notes: Fab fragment; the Fab's constant parts are not; also called 23B3 Fab; PL-38024
Turning to B6, in the assay with human TL1A [2], the “NF-kB IC50 nM, huTL1A (0.2 nM)” value was 2.99 nM. In the assay with cynomolgus TL1A [4], the “NF-kB IC50 nM, cyno TL1A (2 nM)” value was determined as 2.63 nM. In the assay with human TL1A [3], this molecule yielded a Kd of 0.85 nM, a koff of 0.00064 s⁻¹ and a kon of 760000 M⁻¹ s⁻¹. Also, in the assay with cynomolgus TL1A [7], binding was characterised by a dissociation constant (Kd) of 0.31 nM, the koff was 0.00016 s⁻¹ and the kon amounted to 530000 M⁻¹ s⁻¹.

B7: anti-TL1A mAb 3C6 (antibody, human IgG1, kappa, N297G, V domains shown)
VH: QVQLVESGGGVVQPGRSLRLSCAASGFTFSSYGMHWVRQAPGKGLEWVAVISYDGNNKLYTDSVKGRFTISRDDSKSTLYLQMNSLRAEDTAVYYCARDPTVTLYYYYGMDVWGQGTTVTVSS
VL: DIQMTQSPSSLSASVGDRVTITCRTSQDIRDDLGWYQQKPGKAPKRLIYDASSLQSGVPSRFSGSGSGTEFTLTISSLQPEDFATYYCLQHNSYPPTFGQGTKVEIKR
notes: also called PL-39112; iPS 284112
Regarding B7, the “NF-kB IC50 nM, huTL1A (0.2 nM)” value in the assay with human TL1A [2] was found to be 0.153 nM. Besides, the “NF-kB IC50 nM, cyno TL1A (2 nM)” value with cynomolgus TL1A [4] was greater than 100 nM. In the assay with human TL1A [5], this molecule registered a Kd of less than 0.1 nM and a koff of less than 5e-05 s⁻¹. In the assay with cynomolgus TL1A [6], this molecule yielded a Kd of 2.4 nM, a koff of 0.0014 s⁻¹ and a kon of 570000 M⁻¹ s⁻¹.

B8: anti-TL1A Fab 3C6 (Fab, V domains shown)
VH: QVQLVESGGGVVQPGRSLRLSCAASGFTFSSYGMHWVRQAPGKGLEWVAVISYDGNNKLYTDSVKGRFTISRDDSKSTLYLQMNSLRAEDTAVYYCARDPTVTLYYYYGMDVWGQGTTVTVSS
VL: DIQMTQSPSSLSASVGDRVTITCRTSQDIRDDLGWYQQKPGKAPKRLIYDASSLQSGVPSRFSGSGSGTEFTLTISSLQPEDFATYYCLQHNSYPPTFGQGTKVEIK
notes: Fab fragment; the Fab's constant parts are not; also called 3C6 Fab; PL-39193
B8: in the assay with human TL1A [2], the “NF-kB IC50 nM, huTL1A (0.2 nM)” value is 0.162 nM. In addition, the “NF-kB IC50 nM, cyno TL1A (2 nM)” value with cynomolgus TL1A [4] was greater than 100 nM. In addition, the binding result in the assay with cynomolgus TL1A [8] was “no binding (tested: 100 nM)”. In the assay with human TL1A [3], this molecule showed a Kd of less than 0.1 nM and a koff of less than 5e-05 s⁻¹.

B9: anti-TL1A mAb 17E9 (antibody, human IgG1, kappa, N297G, V domains shown)
VH: QVQLVESGGGVVQPGRSLRLSCAASGFTLSSYGMHWVRQAPGKGLEWVAVMSYDGNNKLYADSVKGRFTISRDNSKKTLYLQMNSLRAEDTAVYYCARDETETLYYYYGIDVWGQGTTVTVSS
VL: DIQMTQSPSSLSASVGDRVTITCRASQGISNDLAWYQQKPGKAPKRLIFAASSLQSGVPSRFSGSGSGTEFTLTISSLQPEDFATYYCLQHNSYPPTFGGGTKVEIKR
notes: also called PL-39113; iPS 284078
As for B9, the “NF-kB IC50 nM, huTL1A (0.2 nM)” value with human TL1A [2] worked out at 0.168 nM. Moreover, the “NF-kB IC50 nM, cyno TL1A (2 nM)” value in the assay with cynomolgus TL1A [4] is greater than 100 nM. In the assay with human TL1A [5], the Kd was found to be 0.22 nM, the koff was found to be 5.3e-05 s⁻¹ and the kon is 250000 M⁻¹ s⁻¹. In the assay with cynomolgus TL1A [6], this molecule registered a Kd of 2.8 nM, a koff of 0.002 s⁻¹ and a kon of 730000 M⁻¹ s⁻¹.

B10: anti-TL1A Fab 17E9 (Fab, V domains shown)
VH: QVQLVESGGGVVQPGRSLRLSCAASGFTLSSYGMHWVRQAPGKGLEWVAVMSYDGNNKLYADSVKGRFTISRDNSKKTLYLQMNSLRAEDTAVYYCARDETETLYYYYGIDVWGQGTTVTVSS
VL: DIQMTQSPSSLSASVGDRVTITCRASQGISNDLAWYQQKPGKAPKRLIFAASSLQSGVPSRFSGSGSGTEFTLTISSLQPEDFATYYCLQHNSYPPTFGGGTKVEIK
notes: Fab fragment; the Fab's constant parts are not; also called 17E9 Fab; PL-39194
In the case of B10, the “NF-kB IC50 nM, huTL1A (0.2 nM)” value in the assay with human TL1A [2] was 70.8 nM. In addition, in the assay with cynomolgus TL1A [4], the “NF-kB IC50 nM, cyno TL1A (2 nM)” value was greater than 100 nM. Further, the binding result with cynomolgus TL1A [8] is recorded as “no binding (tested: 100 nM)”. In the assay with human TL1A [3], this molecule gave a Kd of less than 0.1 nM and a koff of less than 5e-05 s⁻¹.

For the origin of these results see patent US20190119407A1 (Amgen, published 2019).
